Source: patent US20240368275A1 (ELPIS BIOPHARMACEUTICALS, published 2024)

T1: full-length human Nectin4 with C-terminal flag and Myc tags on CHO cells (human, UniProt Q96NY8 32-510)
T1 construct: whole, on cells; also called Nectin4/CHO; CHO/Nectin4; not shown: C-terminal flag and Myc tags of pCMV6-Entry vector
T1 sequence (looked up): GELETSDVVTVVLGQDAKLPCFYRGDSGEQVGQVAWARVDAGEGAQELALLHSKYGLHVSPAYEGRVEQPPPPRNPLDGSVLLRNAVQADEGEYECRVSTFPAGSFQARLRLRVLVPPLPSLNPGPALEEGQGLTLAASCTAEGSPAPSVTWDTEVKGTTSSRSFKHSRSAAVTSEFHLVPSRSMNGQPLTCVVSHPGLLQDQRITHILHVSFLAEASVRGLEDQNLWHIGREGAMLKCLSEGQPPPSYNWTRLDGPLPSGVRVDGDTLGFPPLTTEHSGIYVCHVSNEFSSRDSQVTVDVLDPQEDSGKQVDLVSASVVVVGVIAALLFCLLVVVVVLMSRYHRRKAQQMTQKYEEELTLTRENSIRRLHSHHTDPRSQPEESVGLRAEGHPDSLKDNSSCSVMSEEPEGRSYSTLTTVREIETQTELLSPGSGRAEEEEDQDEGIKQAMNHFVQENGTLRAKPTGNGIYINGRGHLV

T2: human Nectin4-HIS tagged recombinant protein (human, UniProt Q96NY8 32-349)
T2 construct: also called hNectin4-HIS; Nectin4 HIS tagged protein; not shown: HIS tag
T2 sequence (looked up): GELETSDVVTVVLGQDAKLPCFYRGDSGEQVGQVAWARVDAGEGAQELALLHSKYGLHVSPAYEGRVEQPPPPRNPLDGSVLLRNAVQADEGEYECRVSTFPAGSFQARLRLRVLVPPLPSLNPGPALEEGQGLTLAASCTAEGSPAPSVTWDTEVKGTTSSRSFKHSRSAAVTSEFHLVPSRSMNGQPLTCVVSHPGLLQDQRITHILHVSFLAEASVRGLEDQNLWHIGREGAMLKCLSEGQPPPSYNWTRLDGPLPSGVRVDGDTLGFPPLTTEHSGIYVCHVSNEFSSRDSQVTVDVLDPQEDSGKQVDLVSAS

T3: human Nectin4-Fc fusion protein (human, UniProt Q96NY8 32-349)
T3 construct: Recombinant protein coated in the scFv ELISA and captured on the anti-hFc chip in the scFv SPR; also called recombinant Nectin4-Fc fusion protein; human Nectin4-Fc protein; not shown: Fc part
T3 sequence (looked up): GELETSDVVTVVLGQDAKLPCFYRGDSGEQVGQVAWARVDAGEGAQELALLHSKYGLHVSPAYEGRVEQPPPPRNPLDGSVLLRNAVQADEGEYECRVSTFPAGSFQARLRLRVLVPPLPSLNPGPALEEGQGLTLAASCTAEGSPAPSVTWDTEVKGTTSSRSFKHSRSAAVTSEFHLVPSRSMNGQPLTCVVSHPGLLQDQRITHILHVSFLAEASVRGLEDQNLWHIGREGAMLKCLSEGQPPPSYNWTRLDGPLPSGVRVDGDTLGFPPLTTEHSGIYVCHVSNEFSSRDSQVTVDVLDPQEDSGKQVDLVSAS


What was measured:
[1] = target: T1, full-length human Nectin4 with …; assay: flow cytometry on CHO/Nectin4 cells
Procedure: Nectin4/CHO Nectin4 cells were plated at 100,000 cells/well in a 96-well plate in 50 μL of full media. Cells were rested 1 hour at 37° C. Anti-Nectin4/CD3 was 3-fold serial titrated from 50 nM. 50 μL was added to the cells and incubated for 1 hours with shaking. Samples were washed one time with flow buffer. […] Samples were washed once with flow buffer. Samples were stained with 100 uL Zombie Fixable Viability Dyes (1:800 dilution) per well and incubated in dark at room temperature for 30 mins. Samples were spun down at 1200 rpm for 5 minutes and washed once with 200 uL flow buffer. Reconstituted samples in 200 uL of flow buffer and read on Attune NxT cytometer. EC₅₀ values for Nectin4 Binding were determined using Prism software.

[2] = target: T2, human Nectin4-HIS tagged recombinant …; assay: ELISA, coated Nectin4 HIS tagged protein, bispecific titrated, anti-Human HRP
Procedure: An ELISA assay was developed to determine the EC₅₀ of anti-Nectin4/CD3 bispecific antibodies. Briefly, 384 well plate was immobilized with human CD3E or Nectin4 HIS tagged protein at final concentration of 2 ug/mL in 1×PBS in total volume of 25 uL per well. The plate was incubated overnight at 4° C. followed by blocking with 80 uL of superblock per well for 1 hour. Purified anti-Nectin4/CD3 was 3-fold serial titrated from 100 nM. 25 uL was added to human Nectin4/CD3 immobilized wells and incubated for 1 hour with shaking. The CD3E or Nectin4 binding was detected by adding 25 uL of anti-Human HRP diluted at 1:10000 in 1×PBST. In between each step, the plate was washed 3 times with […] in a plate washer. The plate was then developed with 20 ul of TMB substrate for 5 mins and stopped by adding 20 ul of 2N sulfuric acid. The plate was read at OD450 nm Biotek plate reader and then plotted in Prism 8.1 software to calculate EC50.

CD3 on Jurkat cells = target: T4, CD3 on Jurkat cells (UniProt P07766 23-207, limits assumed); assay: flow cytometry on Jurkat cells
T4 construct: whole, on cells; the whole CD3/TCR complex stands on the cells; also called Jurkat CD3
T4 sequence (P07766 23-207 limits assumed): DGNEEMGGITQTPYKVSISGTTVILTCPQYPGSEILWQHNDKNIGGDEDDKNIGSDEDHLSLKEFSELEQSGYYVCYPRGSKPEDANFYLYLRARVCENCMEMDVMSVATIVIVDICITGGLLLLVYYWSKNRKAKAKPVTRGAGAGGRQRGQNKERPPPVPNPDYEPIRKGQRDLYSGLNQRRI
Procedure: Jurkat cells were plated at 100,000 cells/well in a 96-well plate with 50 μL of full media. Anti-Nectin4/CD3 antibodies were 3-fold serial titrated from 20 nM. 50 μL was added to the cells and incubated for 1 hours at room temperature with shaking. Samples were washed one time with flow buffer. […] Samples were washed once with flow buffer. Samples were stained with 100 uL Zombie Fixable Viability Dyes at 1:800 dilution per well and incubated in dark at room temperature for 30 mins. Samples were spun down at 1300 rpm for 5 minutes and washed once with 200 uL flow buffer. Reconstituted samples in 200 uL of flow buffer and read on Attune NxT cytometer. EC50 values for CD3 binding were calculated using Prism 8.1 software.
Similar methods of above mentioned were used to measure the binding activities of anti-Nectin4/CD3/IL-2 complexes to CHO/Nectin4 and Jurkat cells, respectively.

[3] = target: T1, full-length human Nectin4 with …; assay: flow cytometry, scFv on Nectin4/CHO cells
Procedure: To determine whether anti-Nectin4 scFvs bind to Nectin4 expressing cells, 200 nM of purified anti-Nectin4 scFv antibodies were diluted in full medium and incubated with Nectin4/CHO and CHO cells in 96 wells plate on ice for 1 hour. Cells were spun down at 1200 rpm for 5 minutes at 4° C. to remove primary antibodies. Cells were then washed once with 200 uL of full medium per well. Samples were detected with premixed anti-His Biotin Streptavidin Alexa fluor 647 by adding 100 uL of diluted secondary antibody and incubated at 4° C. for 30 minutes in the dark. Samples were spun down at 1200 rpm for 5 minutes at 4° C. and washed twice with 200 uL of 1×PBS per well. Reconstituted samples in 200 uL of 1×PBS and read on Attune NxT cytometer. Analysis was done by Attune NxT software plotting the overlay histogram of anti-Nectin4 scFvs binding onto both negative and target cell lines.

[4] = target: T3, human Nectin4-Fc fusion protein; assay: ELISA, coated human Nectin4-Fc, scFv titrated, anti-Flag HRP
Procedure: An ELISA assay was developed to determine the EC₅₀ of anti-Nectin4 antibodies. Briefly, 384 well plate was immobilized with human Nectin4-Fc at final concentration of 2 ug/mL in 1×PBS in total volume of 25 uL per well. The plate was incubated overnight at 4° C. followed by blocking with 80 uL of superblock per well for 1 hour. Purified anti-Nectin4 scFvs were 2-fold serial titrated from 200 nM. 25 uL was added to human Nectin4 immobilized wells and incubated for 1 hour with shaking. The Nectin4 binding was detected by adding 25 uL of anti-Flag HRP diluted at 1:5000 in 1×PBST. In between each step, the plate was washed 3 times with 1×PBST in a plate washer. The plate was then developed with 20 uL of TMB substrate for 5 mins and stopped by adding 20 uL of 2 N sulfuric acid. The plate was read at OD450 nm Biotek plate reader and then plotted in Prism 8.1 software.

[5] = target: T3, human Nectin4-Fc fusion protein; assay: SPR Biacore T200, Nectin4-Fc captured on anti-hFc chip, scFv injected
Procedure: Kinetic analysis of anti-Nectin4 scFvs has been assessed by SPR technology with Biacore T200. The assay was run with Biacore T200 control software version 2.0. Anti-human Fc antibody was immobilized on flow cell 1 and 2 of CM5 sensor chip. For each cycle, 1 ug/mL of human Nectin4-Fc protein was captured for 60 seconds at flow rate of 10 ul/min on flow cell 2 in 1×HBSP buffer on anti-hFc sensor chip. 2-fold serial diluted HIS tag purified anti-Nectin4 scFv was injected onto both reference flow cell 1 and Nectin4-Fc captured flow cell 2 for 150 seconds at flow rate of 30 ul/min followed by wash for 300 seconds. The flow cells were then regenerated with Antibody regeneration buffer (GE) for 30 seconds at flow rate of 30 ul/mins. 8 concentration points from 300-0 nM was assayed per anti-Nectin4 scFv in a 96 well plate. The kinetics of scFvs binding to Nectin4 protein was analyzed with Biacore T200 evaluation software version 3.0. The specific binding response unit was derived from subtraction of binding to reference flow cell 1 from Nectin4 captured flow cell 2.

Binder | EC50 [1] | EC50 [2] | binding result (CD3 on Jurkat cells) | EC50 [3] | EC50 [4] | Kd [5] | koff [5] | kon [5]
EP499/EP378/EP289 anti-Nectin4/CD3 bispecific antibody (bispecific antibody, Bivalent for Nectin4; EP499 carries a humanized SP34 scFv between CH1 and hinge, hole; also called EP499/378/289) heavy 1: EVQLVQSGAEVKKPGASVKVSCKASGYTFTGYYMHWVRQAPGQGLEWMGRINPNSGGTNYAQKFQGRVTMTRDTSISTAYMELSGLRSDDTAVYFCARVTYNIGWYIDYWGQGTLVTVSSASTKGPSVFPLAPSSKSTSGGTAALGCLVKDYFPEPVTVSWNSGALTSGVHTFPAVLQSSGLYSLSSVVTVPSSSLGTQTYICNVNHKPSNTKVDKKVEPKSCDGGGGSGGGGSEVQLVESGGGLVQPGGSLRLSCAASGFTFNTYAMNWVRQAPGKGLEWVARIRSKYNNYATYYAASVKGRFTISRDDSKNSLFLQMNSLKTEDTAVYYCVRHGNFGNSYVSWFAYWGQGTLVTVSSGGGGSGGGGSGGGGSGGGGSQTVVTQEPSLTVSPGGTVTLTCRSSTGAVTTSNYANWVQEKPDHLFTGLIGGTNKRAPGVPARFSGSLLGGKAALTLSGVQPEDEAIYFCALWYSNLWVFGSGTKVTVLEPKSCDKTHTCPPCPAPEAAGGPSVFLFPPKPKDTLMISRTPEVTCVVVDVSHEDPEVKFNWYVDGVEVHNAKTKPREEQYNSTYRVVSVLTVLHQDWLNGKEYKCKVSNKALGAPIEKTISKAKGQPREPQVCTLPPSRDELTKNQVSLSCAVKGFYPSDIAVEWESNGQPENNYKTTPPVLDSDGSFKLVSKLTVDKSRWQQGNVFSCSVMHEALHNHYTQKSLSLSPGK heavy 2: not shown light: QAVVTQPPSVSVAPGKTATITCGGNNIGSKGVHWYQQKPGQAPVLVIYYDTDRPSGIPERLSGSNSGNTATLTISRVEAGDEADYYCQVWDSSSDHPVFGGGTKLTVLGQPKANPTVTLFPPSSEELQANKATLVCLISDFYPGAVTVAWKADGSPVKAGVETTKPSKQSNNKYAASSYLSLTPEQWKSHRSYSCQVTHEGSTVEKTVAPTECS | 0.235 nM | 0.025 nM | – | – | – | – | – | –
EP697/EP378/EP289 anti-Nectin4/CD3 bispecific antibody (bispecific antibody, EP697: two residue mutations within HCDR2 and a single point mutation within HCDR3 of the anti-CD3 scFv of EP500; also called EP697/378/289) heavy 1: EVQLVQSGAEVKKPGASVKVSCKASGYTFTGYYMHWVRQAPGQGLEWMGRINPNSGGTNYAQKFQGRVTMTRDTSISTAYMELSGLRSDDTAVYFCARVTYNIGWYIDYWGQGTLVTVSSASTKGPSVFPLAPSSKSTSGGTAALGCLVKDYFPEPVTVSWNSGALTSGVHTFPAVLQSSGLYSLSSVVTVPSSSLGTQTYICNVNHKPSNTKVDKKVEPKSCDGGGGSGGGGSEVQLVESGGGLVQPGGSLRLSCAASGFTFNTYAMNWVRQAPGKGLEWVARIRSKANAYATYYAASVKGRFTISRDDSKNSLFLQMNSLKTEDTAVYYCVRHGNFGNSAVSWFAYWGQGTLVTVSSGGGGSGGGGSGGGGSGGGGSQAVVTQEPSLTVSPGGTVTLTCASSTGAVTTSNYANWVQEKPDHLFTGLIGGTNKRAPGVPARFSGSLLGGKAALTLSGVQPEDEAEYYCALWYSNLWVFGGGTKLTVLEPKSCDKTHTCPPCPAPEAAGGPSVFLFPPKPKDTLMISRTPEVTCVVVDVSHEDPEVKFNWYVDGVEVHNAKTKPREEQYNSTYRVVSVLTVLHQDWLNGKEYKCKVSNKALGAPIEKTISKAKGQPREPQVCTLPPSRDELTKNQVSLSCAVKGFYPSDIAVEWESNGQPENNYKTTPPVLDSDGSFKLVSKLTVDKSRWQQGNVFSCSVMHEALHNHYTQKSLSLSPGK heavy 2: not shown light: QAVVTQPPSVSVAPGKTATITCGGNNIGSKGVHWYQQKPGQAPVLVIYYDTDRPSGIPERLSGSNSGNTATLTISRVEAGDEADYYCQVWDSSSDHPVFGGGTKLTVLGQPKANPTVTLFPPSSEELQANKATLVCLISDFYPGAVTVAWKADGSPVKAGVETTKPSKQSNNKYAASSYLSLTPEQWKSHRSYSCQVTHEGSTVEKTVAPTECS | – | – | no binding | – | – | – | – | –
2021EP030-F02 scFv (scFv, V domains shown) VH: QVQLQESGPGLVKPSETLSLTCTVSGGSISSSSYYWGWIRQPPGKGLEWIGSIYYSGSTYYNPSLKSRVTISVDTSKNQFSLKLSSVTAADTAVYYCARQANQVVPAAIPWAKPGGTPPNWFDPWGQGTLVTVSS VL: QLVLTQPPSVSVAPGETARITCGGNNIGSKSVHWYQQKPGQAPVLVIYYDSARPSGIPERVSGSNSGNTATLTISRVEAGDEADYYCQVWDSSSDHPRVFGTGTKLTVL | – | – | – | 0.194 nM | 2.97 nM | 1.85 nM | 0.000215 s⁻¹ | 116000 M⁻¹ s⁻¹
2021EP030-C11 scFv (scFv, V domains shown) VH: QMQLVQSKPEVKKPGTSVKVSCKASGFTFTSSAVQWVRQARGQRLEWIGWIVVGSGNTNYAQKFQERVTITRDMSTSTAYMELSSLRSEDTAVYYCAADGDYDIEGALDYWGQGTLVTVSS VL: EIVLTQSPAILSLSPGERATLSCRASQSVSSYLAWYQQKPGQAPRLLIYDASNRATGIPARFSGSGSGTDFTLTISSLEPEDFAVYYCQQRSNWITFGGGTKVEIK | – | – | – | 13 nM | 291 nM | 55.5 nM | 0.000262 s⁻¹ | 4710 M⁻¹ s⁻¹
